Results reported in patent US11352399B2, “Peptide for toll-like receptor (TLR) inhibition and pharmaceutical composition comprising same” (GENESEN CO., LTD., priority 2017, dated 2022).
Primed or numbered codes have the meaning given here. Ends that are not written are not given here. FITC′ = fluorescein isothiocyanate

Key:
hPBMC cells = experiment: NO secretion in LPS-treated hPBMC cells; format: cell-based, human; details: together with LPS, FIG. 12(b)
hTLR4 (human TLR4) = target: T1, hTLR4 (human TLR4) (Homo sapiens, UniProt O00206); experiment: SEAP activity (NF-κB activity) in HEK-Blue-hTLR4 cells; format: cell-based; details: for NF-κB activity (SEAP activity): together with LPS, FIG. 12(a); for SEAP activity, CPP sequence not linked: 12.5, 25, 50 μM, FIG. 1(b)
T1 construct: host or cells: HEK-Blue-hTLR4 (HEK293-derived reporter line)
Description: HEK-Blue™-hTLR4 cells were dispensed into 24-well plates (BD Biosciences) to a cell number of 2×10^5 cells/well, and incubation was performed overnight. The next day, the culture was removed and medium replacement was performed. Then, a portion (200 μl) of the culture was transferred to a microcentrifuge tube and heated at 65° C. for 10 minutes using a heating block (FINEPCR. Co., Seoul, Korea). Subsequently, the culture was transferred to 96-well plates (BD Biosciences), and absorbance was measured at 405 nm using the HEK-Blue™ detection kit (InvivoGen) and a microplate reader spectrophotometer (Molecular Devices Inc., Silicon Valley, Calif., USA), to analyze an expression level of SEAP (secreted alkaline phosphatase).
To this end, the inducible secreted embryonic alkaline phosphatase (SEAP) reporter gene was placed under the control of an IL-12 p40 minimal promoter (IL-12 p40 is produced by activation of NF-κB and AP-1 (activator protein 1) after stimulation of TLR4) which contains sites where DNAs of NF-κB and AP-1 bind. Then, HEK-Blue™-hTLR4 cells were treated with varying concentrations of TIP or TIP (TIP W/O CPP), to which CPP is not linked, at 12.5, 25, 50 μM, and then an average value of SEAP activity was calculated to measure TLR4 activity. The results are illustrated in FIGS. 1(a) and 1(b).
The results are illustrated in FIGS. 12(a) and 12(b).

MyD88 = target: T2, MyD88 (Homo sapiens, UniProt Q99836); experiment: Confocal microscopy of TIP1-FITC and MyD88 in THP1 cells; format: cell-based; details: TIP1-FITC and LPS
T2 construct: endogenous in cells; host or cells: THP1
Description: (§1) RAW 264.7 cells and THP1 cells were dispensed into 24-well plates to a cell number of 2×10^5 cells/well, and then grown in an incubator overnight. Subsequently, combined treatment with TIP1 and LPS was performed. After 24 hours, the RAW 264.7 cells and the THP1 cells were fixed with 3.7% formaldehyde (Sigma-Aldrich Co. LLC) for 15 minutes, and immersed into 0.2% Triton X-100 (AMRESCO, Solon, Ohio, USA) for 15 minutes. Then, washing with PBS was performed three times and blocking with 2% BSA solution was performed. The blocked cells were incubated for 2 hours with TIP1-FITC (25 μM; Peptron, Inc., Daejeon, Korea), p-p65, TLR4, Myd88, TOM20 (1:1000; Santa Cruz Biotechnology Inc.), and NLRP3 (Adipogen) antibodies. Then, washing with PBS was performed three times. Subsequently, the cells were incubated with AlexaFluor […] and/or 488 and/or 546-conjugated secondary antibodies (Invitrogen, Carlsbad, Calif., USA) for 1 hour, and washed three times with PBS. Subsequently, the cells were stained at room temperature for 15 minutes using 5 μM Hoechst 33258 (Sigma-Aldrich Co.), and the number of the fluorescently stained cells was counted using a confocal laser scanning microscope (LSM-700, Carl Zeiss MicroImaging GmbH). The images were analyzed using Zen 2009 software.
(§2) The results are illustrated in FIG. 13.

TLR4 = target: T3, TLR4 (Homo sapiens, UniProt O00206); experiment: Confocal microscopy of TIP1-FITC and TLR4 in THP1 cells; format: cell-based; details: TIP1-FITC and LPS
T3 construct: endogenous in cells; host or cells: THP1
Description: as §1, §2

T1 sequence (O00206 24-839): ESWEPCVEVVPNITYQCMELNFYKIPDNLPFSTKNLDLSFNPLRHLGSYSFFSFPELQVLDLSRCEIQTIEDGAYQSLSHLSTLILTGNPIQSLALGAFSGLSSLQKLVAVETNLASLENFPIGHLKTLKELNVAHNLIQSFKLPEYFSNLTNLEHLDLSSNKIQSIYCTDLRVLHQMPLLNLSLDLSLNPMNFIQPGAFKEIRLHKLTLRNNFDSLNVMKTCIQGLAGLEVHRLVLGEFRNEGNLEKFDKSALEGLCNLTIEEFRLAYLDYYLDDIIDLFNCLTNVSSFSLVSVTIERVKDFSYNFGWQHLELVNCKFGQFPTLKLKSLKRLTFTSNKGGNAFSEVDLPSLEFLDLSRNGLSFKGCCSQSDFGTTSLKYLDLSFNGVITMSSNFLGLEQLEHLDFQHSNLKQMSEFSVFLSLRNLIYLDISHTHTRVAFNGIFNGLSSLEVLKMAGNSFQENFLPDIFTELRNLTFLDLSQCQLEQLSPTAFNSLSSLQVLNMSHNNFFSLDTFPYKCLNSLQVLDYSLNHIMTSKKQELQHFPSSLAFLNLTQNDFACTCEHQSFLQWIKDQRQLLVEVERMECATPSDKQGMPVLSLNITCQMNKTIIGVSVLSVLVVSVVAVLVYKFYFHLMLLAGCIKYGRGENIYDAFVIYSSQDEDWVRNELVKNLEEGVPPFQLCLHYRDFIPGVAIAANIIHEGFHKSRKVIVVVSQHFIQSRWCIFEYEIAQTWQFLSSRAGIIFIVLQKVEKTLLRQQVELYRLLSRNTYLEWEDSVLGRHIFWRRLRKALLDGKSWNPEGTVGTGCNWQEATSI
T1 sequence (Q9Y6Y9 17-160 partner limits assumed): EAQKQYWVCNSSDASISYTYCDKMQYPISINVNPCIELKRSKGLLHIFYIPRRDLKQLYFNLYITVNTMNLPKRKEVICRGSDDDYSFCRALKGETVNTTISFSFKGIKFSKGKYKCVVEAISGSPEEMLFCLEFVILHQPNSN
T3 sequence (O00206 24-839): as the sequence (O00206 24-839) above
T2 sequence (Q99836 whole entry): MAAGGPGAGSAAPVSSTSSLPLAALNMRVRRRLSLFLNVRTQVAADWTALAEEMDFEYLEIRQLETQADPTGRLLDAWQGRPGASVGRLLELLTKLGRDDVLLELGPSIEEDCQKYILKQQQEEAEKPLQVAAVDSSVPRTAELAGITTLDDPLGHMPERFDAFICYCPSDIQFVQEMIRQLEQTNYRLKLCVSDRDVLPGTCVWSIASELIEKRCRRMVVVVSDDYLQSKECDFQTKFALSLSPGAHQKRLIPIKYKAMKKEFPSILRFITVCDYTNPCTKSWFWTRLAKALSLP

Substance	NO secretion level (hPBMC cells)	NF-κB activity (SEAP activity) (hTLR4 (human TLR4))	SEAP activity, CPP sequence not linked (hTLR4 (human TLR4))	also measured
RQIKIWFQNRRMKWKKSHCR (TIP1-2)	also inhibited NO secretion	also decreased NF-κB activity		
RQIKIWFQNRRMKWKKTIPLLS (TIP2) [used as a control]				LPS-induced SEAP activity (hTLR4 (human TLR4); TIP 12.5, 25, 50 μM, then LPS, FIG. 1(a)): unlike TIP2, TIP1 decreased LPS-induced SEAP activity
RQIKIWFQNRRMKWKKVLLI (TIP1-3)	no or insignificant changes were observed	no or insignificant changes were observed		
SHCRVLLI (Decoy peptide 1) [TIP1 W/O CPP]			neither TIP1 (TIP1 W/O CPP) nor TIP2 (TIP2 W/O CPP) changed SEAP activity	
TIP1-FITC: TIP1 with fluorescein isothiocyanate (FITC) bound to the N-terminus ({FITC′}-RQIKIWFQNRRMKWKKSHCRVLLI)				interaction of TIP1-FITC with MyD88 (MyD88): formed a weak bond; interaction of TIP1-FITC with TLR4 (TLR4): strongly bound to each other
TIPLLS (Decoy peptide 2) [TIP2 W/O CPP]			neither TIP1 (TIP1 W/O CPP) nor TIP2 (TIP2 W/O CPP) changed SEAP activity	
